{"source": "ChEMBL document CHEMBL1127724", "about": "“Design and synthesis of 6-fluoropurine acyclonucleosides : potential prodrugs of acyclovir and ganciclovir” (Bioorg Med Chem Lett, 1994)", "proteins": {"B1": {"name": "Adenosine deaminase (Bos taurus), P56658 (protein)", "chain": "MAQTPAFNKPKVELHVHLDGAIKPETILYYGRKRGIALPADTPEELQNIIGMDKPLSLPEFLAKFDYYMPAIAGCREAVKRIAYEFVEMKAKDGVVYVEVRYSPHLLANSKVEPIPWNQAEGDLTPDEVVSLVNQGLQEGERDFGVKVRSILCCMRHQPSWSSEVVELCKKYREQTVVAIDLAGDETIEGSSLFPGHVKAYAEAVKSGVHRTVHAGEVGSANVVKEAVDTLKTERLGHGYHTLEDATLYNRLRQENMHFEVCPWSSYLTGAWKPDTEHPVVRFKNDQVNYSLNTDDPLIFKSTLDTDYQMTKNEMGFTEEEFKRLNINAAKSSFLPEDEKKELLDLLYKAYGMPSPASAEQCL"}}, "key": {"[1]": {"substrate": "Nc1ncnc2c1ncn2[C@@H]1O[C@H](CO)[C@@H](O)[C@H]1O", "assay": "Michaelis-Menten constant for Calf intestinal mucosa adenosine deaminase was determined"}, "[2]": {"substrate": "Nc1ncnc2c1ncn2[C@@H]1O[C@H](CO)[C@@H](O)[C@H]1O", "assay": "Vmax for Calf intestinal mucosa adenosine deaminase was determined"}}, "data": [{"protein": "B1", "values": [{"measurement": "Km", "setting": "[1]", "value": 50.5, "unit": "µM"}, {"measurement": "Vmax (uM min-1 unit-1)", "setting": "[2]", "value": 0.76}]}]}
